Measurements: patent US20040234519A1

Tests used:
[1] = target: T1, PTN secreted by SW13/PTN cells (SW13 human adrenal carcinoma cells stably transfected with PTN cDNA) (human) (UniProt P21246); assay: ELISA, PTN captured from SW13/PTN supernatant by goat anti-human PTN polyclonal, read at 450 nm
T1 sequence: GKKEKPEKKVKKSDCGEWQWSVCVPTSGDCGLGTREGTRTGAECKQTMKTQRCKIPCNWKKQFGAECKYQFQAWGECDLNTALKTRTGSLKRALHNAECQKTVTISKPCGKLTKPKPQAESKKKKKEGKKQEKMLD

[2] = target: T1, PTN secreted by SW13/PTN cells (SW13 human adrenal carcinoma cells stably transfected with PTN cDNA) (human); assay: cell-based or functional assay
[3] = target: T2, recombinant human PTN (R & D Systems, cat# 252-PL) (human) (UniProt P21246); assay: ELISA, plate coated with rhPTN, hybridoma antibody, read at 450 nm
T2 sequence: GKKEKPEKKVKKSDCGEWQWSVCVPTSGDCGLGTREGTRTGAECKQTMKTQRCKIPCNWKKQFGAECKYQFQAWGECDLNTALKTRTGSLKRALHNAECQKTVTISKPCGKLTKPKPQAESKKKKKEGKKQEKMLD

B1: monoclonal antibody produced by the hybridoma cell line 3B10 (antibody, V domains shown)
VH: QVQLQQSGPELVKPGASVKISCQASGYAFSSHWMNWVKQRPGKGLEWIGRIYPGDGDSLYNGKFKGKATLTADKSSTTVYMQLSSLTSEDSAVYFCARTRAYGPAWFAYWGQGTLVTVSA
VL: DIVMTQSPSSLAMSVGQKVTLSCRSSQSLLDSNNQKNYLAWYQQKPGQSPKLLVYFASIRESGVPDRFIGSGSGTDFTLTITSVQAEDLADYFCQQHYSTPLTFGAGTKLELK
modifications: N-terminus of the heavy chain blocked, most likely modified NH2-terminal glutamine
[1]
  ELISA OD: 0.139 OD
[2]
  Proliferation NIH 3T3 (inhibition): 50 % inhibition
  Proliferation U87 MG (inhibition): 50 % inhibition
  Proliferation WI38 (inhibition): 25 % inhibition
  Soft Agar (inhibition): 100 % inhibition
  inhibition of SW13 colony formation in soft agar, antibody at 10 ug/ml: < 95%
[3]
  ELISA OD: 0.597 OD
